Test results: patent publication US20080299228A1, “TOPICAL COMPOSITIONS COMPRISING A MACROMOLECULE AND METHODS OF USING SAME” (priority 2007, published 2008)
No end group written: not given here. *: point of attachment. 125I = [125I]*

How the values were obtained:
[1] = Percutaneous absorption of 125I macromolecules, in vitro cadaver skin finite dose technique; type: in vitro ADME, human; details: for Total Absorption / Dermis / Epidermis / Stratum Corneum / Surface Wash: 48 hours
Description: Radiolabeled Bovine Serum Albumin was acquired from American Radiolabeled Chemicals (St. Louis, Mo.) as ARI 0112 Albumin (bovine serum) [I^125] with a specific activity of 204 Ci/mmol (Lot number 080372). Radiolabeled Epidermal Growth Factor (murine) and Somatastatin were acquired from Perkin Elmer Life and Analytical Sciences (Boston, Mass.) as [^125I]-Epidermal Growth Factor (murine) and [^125I]Tyr11-Somatostatin 14 with specific activities of 2200 Ci/mmol (Lot number CC41180) and 2200 Ci/mmol (Lot number JX32880), respectively. Each stock isotope was either provided as, or reconstituted into 12.5 μL of distilled de-ionized water. This volume was added to 500 μL of the provided test formulations and mixed for uniformity. Replicate assessments were made from each final mixture to determine specific activity.
Skin Preparation. Percutaneous absorption was measured using the in vitro cadaver skin finite dose technique. Ex vivo human trunk skin without obvious signs of skin disease, obtained within 24-48 hours of death, was used in this study. Skin was dermatomed, prepared for cryopreservation, sealed in a water impermeable plastic bag, and stored at <−70° C. until the day of the experiment. Prior to use, it was thawed in ˜37° C. water, then rinsed in water to remove any adherent blood or other material from the surface.
Skin from a single donor was cut into multiple smaller sections large enough to fit on static 1.0 cm^2 Franz diffusion cells (see FIG. 6). The dermal chamber was filled to capacity with a reservoir solution of phosphate-buffered isotonic saline (PBS), pH 7.4±0.1, and the epidermal cell (chimney) left open to ambient laboratory conditions. All cells were mounted in a diffusion apparatus in which the dermal bathing solution was stirred magnetically at approximately 600 RPM and the skin surface temperature maintained at 32.0° C.±1.0° C.
To assure the integrity of each skin section, its permeability to tritiated water was determined before application of the test products. Following a brief (0.5-1 hour) equilibrium period, ^3H2O (NEN, Boston, Mass., sp. Act. ˜0.5 μCi/mL) was layered across the top of the skin by dropper so that the entire exposed surface was covered (approximately 250-500 μL). After 5 minutes the ^3H2O aqueous layer was removed. At 30 minutes the receptor solution was collected and analyzed for radioactive content by liquid scintillation counting. Skin specimens in which absorption of ^3H2O was less than 1.56 μL-equ/cm^2 were considered acceptable.
Dosing and Sample Collection. Just prior to dosing, the reservoir solution was replaced with a fresh solution of 1× PBS and a pre-dose sample taken for analysis. The chimney was removed from the Franz Cell to allow full access to the epidermal surface of the skin. All formulations were then applied to the skin sections using a positive displacement pipette set to deliver 5 μL formulation/cm^2. The dose was spread across the surface with the Teflon® tip of the pipette. Five to ten minutes after application, the chimney portion of the Franz Cell was replaced. At pre-selected times after dosing (1, 2, 4, 8, 12, 24, 32, and 48 hours) the reservoir solution was removed in its entirety, replaced with fresh reservoir solution, and a predetermined volume aliquot saved for subsequent analysis.
After the last sample was collected, the surfaces were washed twice (0.5 mL volume each) with 1× PBS to collect un-absorbed formulation from the surface of the skin. Following the wash, the skin was tape stripped a sufficient number of times to collect the stratum corneum. The skin was then removed from the chamber and split into epidermis and dermis. All skin sections were dissolved overnight in Soluene-350® (Perkin Elmer).
Analytical Methods. Analysis of all formulations was by liquid scintillation counting. One-milliliter volumes of each receptor solution and each surface wash received 5-6 mL scintillation fluid or as needed. […]

[2] = Effect of process parameters and excipients on rehydration time of lyophilized HEC gel; type: physicochemical; set-up: key: ✓: Additives that had a positive effect (i.e., reduction in hydration time) have a check mark beside them; details: additive screening
Procedure: Preliminary studies on rehydration time used water (see Table 13). Rehydration in 12% hexylene glycol, a humectant, decreased the rehydration time for a HEC 250HX lyophilized cake down to 20-30 minutes. Further experiments used 12% hexylene glycol for rehydration.
The freezing rate for lyophilized products can affect the cake structure. Freezing at −20° C. was the standard procedure used in this study. To investigate the effect of a faster freezing rate, samples were frozen in a dry ice/ethanol bath at −48° C.
Samples from both freezing methods were lyophilized. During the lyophilization process, all samples from the ice bath freezing collapsed into dense cakes. During rehydration, the ice bath frozen cakes were much slower to form gels. It took at least 1 hour to rehydrate the ice bath frozen cakes.
HEC 250HX gels at 1.125 and 2.25% polymer were prepared. The latter gel was more viscous than the former due to the higher polymer concentration. After freeze drying, cakes from both products were rehydrated so that the final polymer concentration was 1.125%. The lyophilized gels prepared with the more concentrated polymer solution required approximately 15-20 minutes longer to rehydrate than the more dilute formulation. The higher density of the concentrated polymer cake was likely a factor in the longer rehydration time.
Additives with a wide range of physical properties were screened to evaluate their effect on rehydration time for a lyophilized 1.125% HEC 250HX gel. The chemical classes included in this screen were polymers, surfactants, amino acids, colloidal powders, and salts. All additives were crystalline at room temperature. The use of amorphous excipients could lead to melting/cake collapse at elevated temperature. When evaluating chemical classes, priority was given to those included in the IIG for topicals. Excipients shown to be physically and/or chemically incompatible with PTH(1-34) were excluded (4). Salts containing polyvalent anions were also excluded to avoid the potential for precipitating PTH(1-34).
“Powdered” solid formulations were also evaluated. […]

[3] = type: physicochemical
Procedure: All excipients for the room temperature gel formulations met USP/NF monographs. Reagents for analysis were HPLC and/or ACS grade and nitrogen was ultra high purity (>99.999%). PTH(1-34) was supplied by Neo-MPS. Reverse phase HPLC RP-HPLC analysis of reconstituted gels/solutions was performed according to standard methods.
At each time point, two assays were performed on each formulation.
Before preparing larger batches for longer term stability studies, three pilot batches were prepared on the 10 g scale to assess the solid product's stability. The batches included either PTH(1-34) plus HEC, PTH(1-34) plus HEC in 1.0% mannitol and PTH(1-34) plus HEC in 1.0% lactose. The lyophilized gels were prepared according to the method of Example 8. Stability was assayed according to by HPLC.
The PTH(1-34) formulations that included HEC in 1.0% mannitol and HEC alone were prepared on a larger scale for use in a long-term stability analysis. In addition to these two lyophilized gel formulations, neat PTH(1-34), i.e., PTH powder, was also filled into vials (purged with nitrogen).
PTH was assayed by HPLC analysis of reconstituted gels/solutions. The samples were assayed before storage, stored at 40° C. and assayed at 1, 3, and 6 months after storage. At each time point, 2 assays were performed on each formulation. […]

[4] = 0.5 hr (midpoint), Mean ± SE, n = 3 Donors
[5] = 28.0 hr (midpoint), Mean ± SE, zeros below LLOQ
[6] = percent of applied dose, Mean ± SE

Compound	Mean Flux [1, 4]	Mean Flux ([1]; 1.5 hr (midpoint), Mean ± SE)	Mean Flux ([1]; 3.0 hr (midpoint), Mean ± SE)	Mean Flux ([1]; 6.0 hr (midpoint), Mean ± SE)	Mean Flux ([1]; 10.0 hr (midpoint), Mean ± SE)	Mean Flux ([1]; 18.0 hr (midpoint), Mean ± SE)	Mean Flux [1, 5]	Mean Flux ([1]; 40.0 hr (midpoint), Mean ± SE)	Total Absorption ([1]; single application, Mean ± SE)	Dermis ([1]; Mean ± SE)	Epidermis ([1]; Mean ± SE)	Stratum Corneum ([1]; Mean ± SE)	Surface Wash ([1]; Mean ± SE)	Dermis ([1]; percent of applied dose)	Epidermis ([1]; percent of applied dose)	Stratum Corneum ([1]; percent of applied dose)	Surface Wash ([1]; percent of applied dose)	Total Absorption [1, 6]	effect of additive on hydration time of lyophilized 1.125% HEC 250 HX gel [2]	also measured
Somatostatin: [125I]Tyr11-Somatostatin 14 in HEC gel, 1.0 mg/mL (AGCKNFFWKTY(125I)TSC; ends and bridges not checked; UniProt P61278 103-116, looked up, variant F11Y)	8.09 ± 3.68 ng/cm^2/hr	2.14 ± 1.89 ng/cm^2/hr	0.54 ± 1.89 ng/cm^2/hr	0.22 ± 0.20 ng/cm^2/hr	0.11 ± 0.05 ng/cm^2/hr	0.02 ± 0.02 ng/cm^2/hr	0.00 ± 0.00 ng/cm^2/hr	0.01 ± 0.00 ng/cm^2/hr	0.013 ± 0.007 µg	0.118 ± 0.008 µg	0.180 ± 0.010 µg	0.190 ± 0.009 µg	4.561 ± 0.118 µg	2.410 ± 0.169%	3.697 ± 0.200%	3.886 ± 0.180%	93.493 ± 2.412%	0.234 ± 0.149%	–	–
Epidermal Growth Factor: [125I]-Epidermal Growth Factor (murine) in HEC gel, 0.1 mg/mL	0.40 ± 0.21 ng/cm^2/hr	0.11 ± 0.08 ng/cm^2/hr	0.07 ± 0.06 ng/cm^2/hr	0.04 ± 0.02 ng/cm^2/hr	0.09 ± 0.06 ng/cm^2/hr	0.01 ± 0.01 ng/cm^2/hr	0.00 ± 0.00 ng/cm^2/hr	0.01 ± 0.00 ng/cm^2/hr	0.001 ± 0.000 µg	0.008 ± 0.002 µg	0.013 ± 0.001 µg	0.014 ± 0.001 µg	0.479 ± 0.005 µg	1.629 ± 10.311%	2.646 ± 0.242%	2.773 ± 0.131%	98.145 ± 1.046%	0.278 ± 0.095%	–	–
[Cl-].[Na+] [Sodium Chloride]	–	–	–	–	–	–	–	–	–	–	–	–	–	–	–	–	–	–	Sodium Chloride✓	–
CC(O)C(=O)[O-].[Na+] (centres unmarked) [Sodium Lactate]	–	–	–	–	–	–	–	–	–	–	–	–	–	–	–	–	–	–	Sodium Lactate✓	–
XF15//339006-2: Neat PTH(1-34) from Neo-MPS, lyophilized powder, vials purged with nitrogen	–	–	–	–	–	–	–	–	–	–	–	–	–	–	–	–	–	–	–	degradation (in words) [3]: significant degradation; reduction of PTH(1-34) assay ([3]; six months of storage at 40° C.): ~25%
Bovine Serum Albumin: [125I] bovine serum albumin in HEC gel, 1.0 mg/mL	4.69 ± 3.93 ng/cm^2/hr	1.04 ± 1.04 ng/cm^2/hr	0.71 ± 0.43 ng/cm^2/hr	0.26 ± 0.12 ng/cm^2/hr	0.05 ± 0.05 ng/cm^2/hr	0.04 ± 0.04 ng/cm^2/hr	0.02 ± 0.02 ng/cm^2/hr	0.06 ± 0.03 ng/cm^2/hr	0.010 ± 0.007 µg	0.079 ± 0.024 µg	0.423 ± 0.060 µg	0.616 ± 0.157 µg	3.788 ± 0.357 µg	1.607 ± 0.487%	8.610 ± 1.230%	12.552 ± 3.202%	77.182 ± 7.273%	0.205 ± 0.148%	–	–
[Cl-].[K+] [Potassium Chloride]	–	–	–	–	–	–	–	–	–	–	–	–	–	–	–	–	–	–	Potassium Chloride✓	–
